1 substance from publication PMC5989791 can be followed below.

The assay has as its target amatuximab, chimerized monoclonal IgG1 antibody targeting mesothelin (unlabelled) (human). Briefly: ELISA.

“CA125 tumor-shed antigen, soluble (sCA125), patient-derived (from UniProt Q8WXI7 1-14507) (natural protein)”: the percent decrease of CD16a binding to amatuximab was determined as 50% and the percent reduction of amatuximab binding to CD32a came out at 29%.
